Results as given in the supplement of paper PMC7877785.
± gives the uncertainty stated by the source.

Assay: self-splicing fitness, log relative to wild type (ln ratio); higher = more splicing; Tetrahymena group I intron in knt gene, E. coli kanamycin selection, DiMSum; sequences stand for … in CUCUCU…GGAGGGAAAAGUUAUCAGGCAUGCACCUGGUAGCUAGUCUUUAAACCAAUAGAUUGCAUCGGUUUAAAAGGCAAGACCGUCAAAUUGCGGGAAAGGGGUCAACAGCCGUUCAGUACCAAGUCUCAGGGGAAACUUUGAGAUGGCCUUGCAAAGGGUAUGGUAAUAAGCUGACGGACAUGGUCCUAACCACGCAGCCAAGUCCUAAGUCAACAGAUCUUCUGUUGAUAUGGAUGCAGUUCACAGACUAAAUGUCGGUCGGGGAAGAUGUAUUCUUCUCAUAAGAUAUAGUCGGACCUCUCCUUAAUGGGAGCUAGCGGAUGAAGUGAUGCAACACUGGAGCCGCUGGGAACUAAUUUGUAUGCGAAAGUAUAUUGAUUAGUUUUGGAGUACUCGUGGUCG
In short: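 Six replicate transformations of E. coli BL21(DE3) with a pET-22b(+) library were grown overnight at 37°C or 30°C. The library randomised all eight P1ex-region intron nucleotides, the intron lying in the knt kanamycin-resistance gene, and plates were LB agar with or without 25 μg/mL kanamycin plus 100 μg/mL carbenicillin, 50 μM IPTG and 0.2% rhamnose. Pooled colonies were amplicon-sequenced on an Illumina HiSeq 2500, and fitness is the DiMSum error-weighted combination of wild-type-normalised replicate fold changes, kanamycin versus none.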

| Sequence | self-splicing fitness (ln) (30 °C) | self-splicing fitness (ln) (37 °C) |
| --- | --- | --- |
| UAUUAGCAAUAUUACGAUUG | -1.08 ± 0.089 | -0.0341 ± 0.14 |
| UAUUAGCAAUAUUACGCACG | -0.859 ± 0.16 | 0.0642 ± 0.17 |
| UAUUAGCAAUAUUACGCCGU | – | -1.63 ± 0.33 |
| UAUUAGCAAUAUUACGCGGG | -2.9 ± 0.18 | -1.59 ± 0.23 |
| UAUUAGCAAUAUUACGCUGG | -2 ± 0.14 | -0.655 ± 0.14 |
| UAUUAGCAAUAUUACGGAUU | -1.74 ± 0.12 | -0.699 ± 0.11 |
| UAUUAGCAAUAUUACGGCCC | -1.78 ± 0.5 | – |
| UAUUAGCAAUAUUACGGGAG | -3.18 ± 0.16 | -2.16 ± 0.12 |
| UAUUAGCAAUAUUACGGGUC | -2.14 ± 0.37 | -2.29 ± 0.35 |
| UAUUAGCAAUAUUACGGUAA | -2.24 ± 0.26 | -1.54 ± 0.23 |
| UAUUAGCAAUAUUACGGUUA | 0.108 ± 0.097 | -0.239 ± 0.11 |
| UAUUAGCAAUAUUACGUCCC | -2.83 ± 0.42 | -0.713 ± 0.46 |
| UAUUAGCAAUAUUACGUUCA | -1.04 ± 0.1 | -0.21 ± 0.14 |
| UAUUAGCAAUAUUACGUUGG | -2.1 ± 0.21 | -0.685 ± 0.18 |
| UCAAAGCAAUAUUACGAACC | -2.8 ± 0.27 | -0.879 ± 0.28 |
| UCAAAGCAAUAUUACGAAGU | -2.96 ± 0.16 | -2.39 ± 0.24 |
| UCAAAGCAAUAUUACGACCA | -1.97 ± 0.22 | -1.4 ± 0.23 |
| UCAAAGCAAUAUUACGACCC | -3.88 ± 0.35 | -2.34 ± 0.39 |
| UCAAAGCAAUAUUACGAUCG | -0.659 ± 0.085 | -0.141 ± 0.11 |
| UCAAAGCAAUAUUACGCACU | -2.08 ± 0.11 | -2.5 ± 0.22 |
| UCAAAGCAAUAUUACGCCCC | -2.12 ± 0.39 | -1.54 ± 0.37 |
| UCAAAGCAAUAUUACGCCUA | -2.71 ± 0.2 | -0.722 ± 0.11 |
| UCAAAGCAAUAUUACGCGAG | -0.91 ± 0.12 | -0.54 ± 0.14 |
| UCAAAGCAAUAUUACGCUCU | -3.71 ± 0.27 | -2.69 ± 0.26 |
| UCAAAGCAAUAUUACGCUGA | -3.43 ± 0.29 | -1.62 ± 0.23 |
| UCAAAGCAAUAUUACGCUUU | -3.89 ± 0.46 | -1.72 ± 0.27 |
| UCAAAGCAAUAUUACGGAAC | -4.3 ± 0.32 | – |

| Sequence | self-splicing fitness (ln) (30 °C) | self-splicing fitness (ln) (37 °C) |
| --- | --- | --- |
| UCAAAGCAAUAUUACGGACC | – | -2.54 ± 0.32 |
| UCAAAGCAAUAUUACGGAGC | – | -3.53 ± 0.33 |
| UCAAAGCAAUAUUACGGAUG | -2.78 ± 0.08 | -1.32 ± 0.086 |
| UCAAAGCAAUAUUACGGAUU | -3.73 ± 0.24 | -2.26 ± 0.21 |
| UCAAAGCAAUAUUACGGCCC | -3.79 ± 0.47 | -2.18 ± 0.46 |
| UCAAAGCAAUAUUACGGCGU | -0.917 ± 0.065 | -0.201 ± 0.086 |
| UCAAAGCAAUAUUACGGUCG | -0.405 ± 0.069 | -0.439 ± 0.094 |
| UCAAAGCAAUAUUACGGUUU | -3.06 ± 0.21 | -3 ± 0.27 |
| UCAAAGCAAUAUUACGUACC | -3.01 ± 0.3 | -1.69 ± 0.3 |
| UCAAAGCAAUAUUACGUCCU | -3.34 ± 0.29 | -1.98 ± 0.24 |
| UCAAAGCAAUAUUACGUUGC | -3.48 ± 0.19 | -3.23 ± 0.26 |
| UCACAGCAAUAUUACGAUCC | -3.08 ± 0.2 | -2.03 ± 0.22 |
| UCACAGCAAUAUUACGAUUC | -3.61 ± 0.16 | -3.05 ± 0.18 |
| UCACAGCAAUAUUACGCAAA | -2.74 ± 0.19 | -2.91 ± 0.17 |
| UCACAGCAAUAUUACGCAAU | – | -2.13 ± 0.14 |
| UCACAGCAAUAUUACGCCAG | -1.6 ± 0.15 | -0.668 ± 0.25 |
| UCACAGCAAUAUUACGCGCA | -0.0823 ± 0.068 | 0.0608 ± 0.075 |
| UCACAGCAAUAUUACGCGGC | -3.63 ± 0.23 | -2.5 ± 0.28 |
| UCACAGCAAUAUUACGCUAU | – | -2.23 ± 0.21 |
| UCACAGCAAUAUUACGGAAC | -2.98 ± 0.21 | -2.45 ± 0.26 |
| UCACAGCAAUAUUACGGCAG | -2.03 ± 0.12 | -0.996 ± 0.16 |
| UCACAGCAAUAUUACGGGAC | -2.77 ± 0.21 | -1.76 ± 0.18 |
| UCACAGCAAUAUUACGGGCA | -0.496 ± 0.075 | -0.337 ± 0.083 |
| UCACAGCAAUAUUACGGGGG | -2.39 ± 0.15 | -2.03 ± 0.16 |
| UCACAGCAAUAUUACGUCGA | -0.572 ± 0.068 | -0.734 ± 0.08 |
| UCACAGCAAUAUUACGUCGC | -2.99 ± 0.19 | -2.13 ± 0.19 |
| UCACAGCAAUAUUACGUGAU | -3.64 ± 0.12 | -2.76 ± 0.15 |

| Sequence | self-splicing fitness (ln) (30 °C) | self-splicing fitness (ln) (37 °C) |
| --- | --- | --- |
| UCACAGCAAUAUUACGUGCG | -0.577 ± 0.056 | -0.105 ± 0.069 |
| UCACAGCAAUAUUACGUGUG | -4.09 ± 0.15 | -2.13 ± 0.1 |
| UCACAGCAAUAUUACGUUAU | -3.61 ± 0.12 | -2.75 ± 0.12 |
| UCACAGCAAUAUUACGUUUC | -3.8 ± 0.19 | -3.02 ± 0.21 |
| UCAGAGCAAUAUUACGAAAG | -2.84 ± 0.36 | -1.6 ± 0.38 |
| UCAGAGCAAUAUUACGAGAG | -3.72 ± 0.27 | -3.27 ± 0.42 |
| UCAGAGCAAUAUUACGAUAA | – | -2.46 ± 0.41 |
| UCAGAGCAAUAUUACGAUAG | -4.05 ± 0.39 | -2.38 ± 0.39 |
| UCAGAGCAAUAUUACGAUAU | – | -2.32 ± 0.33 |
| UCAGAGCAAUAUUACGCACA | -1.74 ± 0.29 | 0.554 ± 0.43 |
| UCAGAGCAAUAUUACGCAGU | -0.644 ± 0.22 | -1.83 ± 0.41 |
| UCAGAGCAAUAUUACGCUAA | – | 1.19 ± 0.3 |
| UCAGAGCAAUAUUACGCUGA | -3.04 ± 0.34 | -2.1 ± 0.37 |
| UCAGAGCAAUAUUACGGUCG | -2.95 ± 0.16 | -1.32 ± 0.14 |
| UCAGAGCAAUAUUACGGUUA | -2.88 ± 0.26 | -2.05 ± 0.22 |
| UCAGAGCAAUAUUACGGUUC | -3.72 ± 0.33 | -1.84 ± 0.21 |
| UCAGAGCAAUAUUACGGUUG | -3.9 ± 0.31 | -2.35 ± 0.26 |
| UCAGAGCAAUAUUACGGUUU | -3.76 ± 0.28 | -2.07 ± 0.18 |
| UCAGAGCAAUAUUACGUGAU | -3.03 ± 0.32 | -2.94 ± 0.26 |
| UCAGAGCAAUAUUACGUGGC | -3.85 ± 0.25 | -2.32 ± 0.26 |
| UCAGAGCAAUAUUACGUUCA | -1.71 ± 0.27 | -2.48 ± 0.39 |
| UCAGAGCAAUAUUACGUUGA | -2.33 ± 0.12 | -1.54 ± 0.14 |
| UCAUAGCAAUAUUACGAAGU | -3.43 ± 0.16 | -3.51 ± 0.39 |
| UCAUAGCAAUAUUACGACUU | -3.87 ± 0.28 | -2.42 ± 0.39 |
| UCAUAGCAAUAUUACGAGAA | -2.05 ± 0.3 | -2.55 ± 0.36 |
